# From the supplement of paper PMC12855868
# B1: library; numbered along this chain (parent)
# chain: MAAAGGARLLRAASAVLGGPAGRWLHHAGSRAGSSGLLRNRGPGGSAEASRSLSVSARARSSSEDKITVHFINRDGETLTTKGKVGDSLLDVVVENNLDIDGFGACEGTLACSTCHLIFEDHIYEKLDAITDEENDMLDLAYGLTDRSRLGCQICLTKSMDNMTVRVPETVADARQSIDVGKTS
# Variants of: B1
# Experiment: scaled log2 fold change in cell abundance, elesclomol vs control (0 = silent mean, 1 = nonsense mean) (scaled log2 ratio); higher = higher viability under elesclomol (loss of FDX1 cuproptosis function)
# Conditions: glucose 10 mM
# [1] = with ABC1 FDX1 KO, elesclomol 5 nM, 14 days
# [2] = with HEK293T FDX1 KO, elesclomol 40 nM, 11 days
# 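Note: variant abundance is its share of total variant reads in each endpoint sample, from next-generation sequencing of the integrated ORF PCR-amplified out of genomic DNA.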
Variant,scaled log2 fold change [1],scaled log2 fold change [2]
MAAAGGARLLRAASAVLGGPAGRWLHHAGSRAGSSGLLRNRGPGGSAEASRSLSVSARARSSSEDKITVHFINRDGETLTTKGKVGDSLLDVVVYNNLDIDGFGACEGTLACSTCHLIFEDHIYEKLDAITDEENDMLDLAYGLTDRSRLGCQICLTKSMDNMTVRVPETVADARQSIDVGKTS,-0.143,-0.228
MAAAGGARLLRAASAVLGGPAGRWLHHAGSRAGSSGLLRNRGPGGSAEASRSLSVSARARSSSEDKITVHFINRDGETLTTKGKVGDSLLDVVVENNLDIDGFGACEGTLACSTCHLIFEDHIYEKLDAITDEENDMLDLAYGLTDRSRLGCQICLTKSMSNMTVRVPETVADARQSIDVGKTS,0.299,-0.0997
MAAAGGARLLRAASAVLGGPAGRWLHHAGSRAGSSGLLRNRGPGGSAEASRSLSVSARARSSSEDKITVHFINRDGETLTTKGKVGDSLLDVVVENNLDIDGFGACEGTLACSTCHLIFEDHIYEKLDAITDEENDMLDLAYGLTDRSRLGCQICLTKSMWNMTVRVPETVADARQSIDVGKTS,0.197,-0.0327
MAAAGGARLLRAASAVLGGPAGRWLHHAGSRAGSSGLLRNRGPGGSAEASRSLSVSARARSSSEDKIWVHFINRDGETLTTKGKVGDSLLDVVVENNLDIDGFGACEGTLACSTCHLIFEDHIYEKLDAITDEENDMLDLAYGLTDRSRLGCQICLTKSMDNMTVRVPETVADARQSIDVGKTS,0.0579,0.896
MAAAGGARLLRAASAVLGGPAGRWLHHAGSRAGSSGLLRNRGPGGSAEASRSLSVSARARSSSELKITVHFINRDGETLTTKGKVGDSLLDVVVENNLDIDGFGACEGTLACSTCHLIFEDHIYEKLDAITDEENDMLDLAYGLTDRSRLGCQICLTKSMDNMTVRVPETVADARQSIDVGKTS,0.175,-0.119
MAAAGGARLLRAASAVLGGPAGRWLHHAGSRAGSSGLLRNRGPGGSAEASRSLSVSARARSSSEDKFTVHFINRDGETLTTKGKVGDSLLDVVVENNLDIDGFGACEGTLACSTCHLIFEDHIYEKLDAITDEENDMLDLAYGLTDRSRLGCQICLTKSMDNMTVRVPETVADARQSIDVGKTS,0.0413,-0.46
MAAAGGARLLRAASAVLGGPAGRWLHHAGSRAGSSKLLRNRGPGGSAEASRSLSVSARARSSSEDKITVHFINRDGETLTTKGKVGDSLLDVVVENNLDIDGFGACEGTLACSTCHLIFEDHIYEKLDAITDEENDMLDLAYGLTDRSRLGCQICLTKSMDNMTVRVPETVADARQSIDVGKTS,-0.118,-0.253
MAAAGGARLLRAASAVLGGPAGRWLHHAGSRAGSSGLLRNRGPGGSAEASRSLSVSARARSSSEDKITVHFINRDGETLTTKGKVGDSLLDVVVENNLDIDGFGACEGTLACSTCHLIFEDHIYEKLDAITDEENDMLDLAYGLTERSRLGCQICLTKSMDNMTVRVPETVADARQSIDVGKTS,0.138,0.321
MAAAGGARLLRAASAVLGGPAGRWLHHAGSRAGSSGLLRNRGPGGSAEASRSLSVSARARSSSEDKITVHFINRDGETLTTKGKVGDSLLDVVVENNLDIDGFGACEGTLACSTCHLIFEDHIYEKLDAITDEENDMLDLAYGLTDRSRLGCQICLTKSMDNMTVRVPETVADARQSICVGKTS,0.369,-0.227
MAAAGGARLLRAASAVLGGPAGRWLHHAGSRAGSSGLLRNRGPGGSAEASRSLSVSARARSSSEDKITVHFINRDGETLTYKGKVGDSLLDVVVENNLDIDGFGACEGTLACSTCHLIFEDHIYEKLDAITDEENDMLDLAYGLTDRSRLGCQICLTKSMDNMTVRVPETVADARQSIDVGKTS,-0.015,-0.0662
MAAAGGARLLRAASAVLGGPAGRWLHHAGSRAGSSGLLRNRGPGGSAEASRSLSVSARARSSSEDKITVHFINRDGETLTTKGKVGDSLLDVVVENNLDIDGFGACEGTLACSTCHLIFEDHIYEKLDAITDEENDMLDLAYGLTDRSALGCQICLTKSMDNMTVRVPETVADARQSIDVGKTS,0.375,0.982
MAAAGGARLLRAASAVLGGPAGRWLHHAGSRAGSSGLLRNRGPGGSAEASRSLSVSARARSSSEDKITVHFINRDGETLTTKGKVGDSLLDVVVENNLDIDGFGACEGTLACSTCHLIFEDHIYEKLDAITDEENDMLDLAYGLTDRSRLGCQICLTKMMDNMTVRVPETVADARQSIDVGKTS,-0.149,-0.209
MAAAGGARLLRAASAVLGGPAGRWLHHAGSRAGSSGLLRNRGPGGSAEASRSLSVSARARSSSEDKITVHFINSDGETLTTKGKVGDSLLDVVVENNLDIDGFGACEGTLACSTCHLIFEDHIYEKLDAITDEENDMLDLAYGLTDRSRLGCQICLTKSMDNMTVRVPETVADARQSIDVGKTS,0.363,0.881
MAAAGGARLLRAASAVLGGPAGRWLHHAGSRAGSSGLLRNRGPGGSAEASRSLSVSARARSSSEDKITVHFINRDGETLTTKGKVGDSLLDVVVENNLDIDGFGACEGTLACSTCHLIFEDHIYEKLDAITDEENDMLDLAYGLTDRSRLGCQICLTKSMDNMAVRVPETVADARQSIDVGKTS,0.408,0.0905
MAAAGGARLLRAASAVLGGPAGRWLHHAGSRAGSSGLLRNRGPGGSAEASRSLSVSARARSSSEDKITVHFINRDGETLTTKGKVGDSLLDVVVENNLDIDGFGACEGTLACSTCHLIFEDHIYEKLDAITDEDNDMLDLAYGLTDRSRLGCQICLTKSMDNMTVRVPETVADARQSIDVGKTS,0.911,1.21
MAAAGGARLLRAASAVLGGPAGRWLHHAGSRAGSSGLLRNRGPGGSAEASRSLSVSARARSSSEDKITVHFINRDVETLTTKGKVGDSLLDVVVENNLDIDGFGACEGTLACSTCHLIFEDHIYEKLDAITDEENDMLDLAYGLTDRSRLGCQICLTKSMDNMTVRVPETVADARQSIDVGKTS,0.401,-0.808
